One molecule from paper PMC11455619 (Structure (London, England : 1993), 2024) can be followed below.

For this assay, the target named is T1, septin-7 (commercially purified, LSBio) (UniProt Q16181 1-437, labelled with RED-tris-NTA 2nd generation dye (Monolith His-Tag labeling kit)).
T1 sequence (looked up): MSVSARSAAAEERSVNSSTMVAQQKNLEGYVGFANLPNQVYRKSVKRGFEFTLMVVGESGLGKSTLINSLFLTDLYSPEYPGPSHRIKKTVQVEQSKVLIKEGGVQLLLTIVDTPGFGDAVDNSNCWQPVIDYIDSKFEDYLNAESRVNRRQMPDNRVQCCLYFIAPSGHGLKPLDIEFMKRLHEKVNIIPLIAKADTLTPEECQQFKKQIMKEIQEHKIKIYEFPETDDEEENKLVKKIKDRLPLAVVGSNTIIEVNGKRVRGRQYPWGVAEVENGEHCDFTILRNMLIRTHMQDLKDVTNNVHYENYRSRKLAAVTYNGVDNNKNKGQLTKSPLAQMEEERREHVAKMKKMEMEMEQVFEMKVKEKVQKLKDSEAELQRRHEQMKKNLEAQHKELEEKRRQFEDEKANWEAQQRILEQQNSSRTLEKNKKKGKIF
As to the kind of experiment: MST.

B1: SOD1 trimer, F20L-H46Q (FH) trimer-stabilising mutant (enzyme)
chain: not shown
For orientation: Kd means the free concentration of one partner at which half of the binding sites on the other are occupied at equilibrium, for simple one-to-one binding. Read a low Kd as higher affinity. Molecule B1 returned a Kd of 6.84 µM.
